The record followed here is article PMC11094075.

The experiment deals with HA-Ago2K212A, in Ago2-knockout A549 and HCC1806 cells (human) (UniProt Q9UKV8). Nature of the experiment: co-IP; Ago2-knockout A549 and HCC1806 cells expressing HA-Ago2Wt, HA-Ago2K212A or HA-Ago2K212R; IP with anti-HA, blot for endogenous CAV1; ratio pCAV1/pHA; vehicle or TM (10 µM).

On to “Caveolin-1 (CAV1), endogenous (from UniProt Q03135 1-178) (natural protein)”, for which the percent decrease of co-precipitated CAV1 per precipitated HA-Ago2 (pCAV1/pHA) against HA-Ago2Wt was 46%.
